The values below come from US20230174653A1.

The target of assay [1] is T1, B7-H3 (CD276), endogenous on tumor cells (LM7, A549, U373) (UniProt Q5ZPR3).
T1 sequence (looked up): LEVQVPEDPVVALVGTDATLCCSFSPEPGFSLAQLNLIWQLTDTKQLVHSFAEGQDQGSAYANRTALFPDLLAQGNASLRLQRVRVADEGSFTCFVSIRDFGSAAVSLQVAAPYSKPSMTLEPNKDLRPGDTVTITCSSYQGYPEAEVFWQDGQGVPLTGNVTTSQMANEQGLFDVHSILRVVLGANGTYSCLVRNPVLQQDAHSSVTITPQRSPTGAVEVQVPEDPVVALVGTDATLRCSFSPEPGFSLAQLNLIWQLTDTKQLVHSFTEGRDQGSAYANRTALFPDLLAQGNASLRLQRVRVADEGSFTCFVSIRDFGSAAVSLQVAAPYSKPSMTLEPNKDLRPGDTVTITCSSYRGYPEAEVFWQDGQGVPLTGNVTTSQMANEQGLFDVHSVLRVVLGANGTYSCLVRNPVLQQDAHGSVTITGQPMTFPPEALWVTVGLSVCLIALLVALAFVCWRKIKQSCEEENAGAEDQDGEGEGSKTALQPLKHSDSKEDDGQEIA
Kind of assay: cell-based or functional assay.

For assay [2], the target named is T1, B7-H3 (CD276), endogenous on tumor cells (LM7, A549, U373). Put plainly: cell-based or functional assay. This is another data set of the same source.

Read-outs that look alike come from different tables or passages of the source.

Consider “CD8α/4-1BB B7-H3-CAR (second generation B7-H3-CAR with MGA271-derived scFv, CD8α hinge/transmembrane domain, 4-1BB costimulatory domain and CD3ζ), expressed on human T cells”, for which the cytolysis of LM7 tumor cells, impedance assay (xCelligence), 1st stimulation, 0.5:1 T-cell to tumor cell ratio in assay [1] is 100%.

As to “CD8α/CD28 B7-H3-CAR (second generation B7-H3-CAR with MGA271-derived scFv, CD8α hinge/transmembrane domain, CD28 costimulatory domain and CD3ζ), expressed on human T cells”, in assay [1], the cytolysis of LM7 tumor cells, impedance assay (xCelligence), 1st stimulation is 100% and the cytolysis of LM7 tumor cells, impedance assay (xCelligence), 1st stimulation, 0.5:1 T-cell to tumor cell ratio worked out at 100%.

The molecule “CD8α/CD28.4-1BB third generation (3G) B7-H3-CAR (4-1BB signaling domain inserted into the CD8α/CD28-CAR), expressed on human T cells” registered a cytolysis of LM7 tumor cells, impedance assay (xCelligence), 1st stimulation in assay [1] of 100%.

B1: CD28/CD28 B7-H3-CAR (second generation B7-H3-CAR with MGA271-derived scFv, CD28 hinge/transmembrane domain, CD28 costimulatory domain and CD3ζ), expressed on … (protein)
chain: EVQLVESGGGLVQPGGSLRLSCAASGFTFSSFGMHWVRQAPGKGLEWVAYISSDSSAIYYADTVKGRFTISRDNAKNSLYLQMNSLRDEDTAVYYCGRGRENIYYGSRLDYWGQGTTVTVSSGGGGSGGGGSGGGGSDIQLTQSPSFLSASVGDRVTITCKASQNVDTNVAWYQQKPGKAPKALIYSASYRYSGVPSRFSGSGSGTDFTLTISSLQPEDFATYYCQQYNNYPFTFGQGTKLEIKIEVMYPPPYLDNEKSNGTIIHVKGKHLCPSPLFPGPSKPFWVLVVVGGVLACYSLLVTVAFIIFWVRSKRSRLLHSDYMNMTPRRPGPTRKHYQPYAPPRDFAAYRSRVKFSRSADAPAYQQGQNQLYNELNLGRREEYDVLDKRRGRDPEMGGKPRRKNPQEGLYNELQKDKMAEAYSEIGMKGERRRGKGHDGLYQGLSTATKDTYDALHMQALPPR
Take B1: the cytolysis of LM7 tumor cells, impedance assay (xCelligence), 1st stimulation, 0.5:1 T-cell to tumor cell ratio in assay [2] came out at 100%.

B2: CD28/4-1BB B7-H3-CAR (second generation B7-H3-CAR with MGA271-derived scFv, CD28 hinge/transmembrane domain, 4-1BB costimulatory domain and CD3ζ), expressed on … (protein)
chain: EVQLVESGGGLVQPGGSLRLSCAASGFTFSSFGMHWVRQAPGKGLEWVAYISSDSSAIYYADTVKGRFTISRDNAKNSLYLQMNSLRDEDTAVYYCGRGRENIYYGSRLDYWGQGTTVTVSSGGGGSGGGGSGGGGSDIQLTQSPSFLSASVGDRVTITCKASQNVDTNVAWYQQKPGKAPKALIYSASYRYSGVPSRFSGSGSGTDFTLTISSLQPEDFATYYCQQYNNYPFTFGQGTKLEIKIEVMYPPPYLDNEKSNGTIIHVKGKHLCPSPLFPGPSKPFWVLVVVGGVLACYSLLVTVAFIIFWVKRGRKKLLYIFKQPFMRPVQTTQEEDGCSCRFPEEEEGGCELRVKFSRSADAPAYQQGQNQLYNELNLGRREEYDVLDKRRGRDPEMGGKPRRKNPQEGLYNELQKDKMAEAYSEIGMKGERRRGKGHDGLYQGLSTATKDTYDALHMQALPPR
B2: the cytolysis of LM7 tumor cells, impedance assay (xCelligence), 1st stimulation, 0.5:1 T-cell to tumor cell ratio in assay [2] turned out to be 100%.
